For 17 sequences, protein stability index results are on record in the supplement of paper PMC10724198.

The subject of data set [1] is Saccharomyces cerevisiae. The data set can be described thus: protein stability index of tFT-peptide fusion (C-terminal peptide) (PSI (0-1 scale)); higher = more stable (slower turnover). As to the method:
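MPS profiling in S. cerevisiae of the tFT-X12 degron library: putative degron peptides plus stable controls, 12 aa, fused to the C-terminus of a sfGFP-mCherry timer. Cells are FACS-sorted into 8 mCherry/sfGFP bins and deep-sequenced. PSI runs from 0 (unstable) to 1 (stable). Backgrounds are wild type, das1Δ and doa10Δ at 30 °C, and wild type, das1Δ, cdc34-1 and cdc53-1 at 37 °C; 2-3 technical replicates each.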

In data set [2] the test system is Saccharomyces cerevisiae. The data set is described as above. The note with it: genetic background: wild type; temperature: 30 C.
Setting [3] is: genetic background: cdc34-1, temperature: 37 C.
Where [4] appears, read: genetic background: cdc53-1, temperature: 37 C.
The mark [5] stands for this setting: genetic background: das1 deletion, temperature: 30 C.
The mark [6] stands for this setting: genetic background: das1 deletion, temperature: 37 C.
Where [7] appears, read: genetic background: doa10 deletion, temperature: 30 C.
Where [8] appears, read: genetic background: wild type, temperature: 30 C.
Setting [9] is: genetic background: wild type, temperature: 37 C.

± gives the standard deviation of the averaged measurements.
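Also: PSI is a weighted mean of sequencing reads over stability bins, variants kept only with over 10 reads, mCherry proximal and sfGFP distal, peptide attached via GGGS linker.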

Consider GRPYHLCLFSCF, for which the protein stability index in data set [1] (setting [3]) was found to be 0.646 ± 0.018; in data set [1] (setting [4]), 0.754 ± 0.013; in data set [1] (setting [5]) it was 0.646 ± 0.036; in data set [1] (setting [6]), 0.754 ± 0.024; in data set [1] (setting [7]) it was 0.333 ± 0.024; in data set [1] (setting [8]), 0.343 ± 0.027. In addition, the protein stability index in data set [1] (setting [9]) came to 0.577 ± 0.016; in data set [2], 0.353 ± 0.021.
GRRLGLLNLLSY: the protein stability index stood at 0.649 ± 0.029 in data set [1] (setting [3]); 0.744 ± 0.0023 in data set [1] (setting [4]); 0.625 ± 0.013 in data set [1] (setting [5]); 0.724 ± 0.019 in data set [1] (setting [6]); 0.255 ± 0.016 in data set [1] (setting [7]); 0.305 ± 0.028 in data set [1] (setting [8]). In addition, the protein stability index was determined as 0.601 ± 0.027 in data set [1] (setting [9]) and 0.456 ± 0.064 in data set [2].
Take GRSVGVTMFKNG: the protein stability index amounted to 0.614 ± 0.059 in data set [1] (setting [3]); 0.7332 ± 0.0067 in data set [1] (setting [4]); 0.627 ± 0.017 in data set [1] (setting [5]); 0.73 ± 0.018 in data set [1] (setting [6]); 0.172 ± 0.019 in data set [1] (setting [7]); 0.206 ± 0.014 in data set [1] (setting [8]). In addition, the protein stability index came out at 0.479 ± 0.016 in data set [1] (setting [9]) and 0.3421 ± 0.0014 in data set [2].
GRWLYSACVALN: the protein stability index in data set [1] (setting [3]) is 0.62 ± 0.072; in data set [1] (setting [4]), 0.71 ± 0.014; in data set [1] (setting [5]) it was 0.596 ± 0.022; in data set [1] (setting [6]), 0.7063 ± 0.0033; in data set [1] (setting [7]), 0.195 ± 0.0073; in data set [1] (setting [8]), 0.196 ± 0.026. Moreover, the protein stability index stood at 0.4027 ± 0.0021 in data set [1] (setting [9]) and 0.395 ± 0.017 in data set [2].
On to GSRVICMVVATM, for which the protein stability index in data set [1] (setting [3]) came out at 0.546 ± 0.044; in data set [1] (setting [4]), 0.611 ± 0.016; in data set [1] (setting [5]), 0.463 ± 0.041; in data set [1] (setting [6]), 0.6078 ± 0.0058; in data set [1] (setting [7]), 0.419 ± 0.035; in data set [1] (setting [8]), 0.436 ± 0.02. For the same sequence, the protein stability index in data set [1] (setting [9]) is 0.582 ± 0.0029; in data set [2], 0.488 ± 0.022.
On to GTRREFVILYLF, for which the protein stability index amounted to 0.544 ± 0.026 in data set [1] (setting [3]); 0.675 ± 0.027 in data set [1] (setting [4]); 0.525 ± 0.016 in data set [1] (setting [5]); 0.694 ± 0.035 in data set [1] (setting [6]); 0.119 ± 0.0081 in data set [1] (setting [7]); 0.133 ± 0.035 in data set [1] (setting [8]). Besides, the protein stability index in data set [1] (setting [9]) was 0.101 ± 0.019; in data set [2] it was 0.191 ± 0.0076.
With GVFISFFFVFRF, the protein stability index in data set [1] (setting [3]) stood at 0.154 ± 0.0055; in data set [1] (setting [4]), 0.173 ± 0.037; in data set [1] (setting [5]), 0.269 ± 0.035; in data set [1] (setting [6]), 0.373 ± 0.013; in data set [1] (setting [7]) it was 0.354 ± 0.017; in data set [1] (setting [8]) it was 0.237 ± 0.025. Besides, the protein stability index in data set [1] (setting [9]) is 0.309 ± 0.033; in data set [2], 0.308 ± 0.013.
For GVFRYKLILRKM, the protein stability index in data set [1] (setting [3]) stood at 0.527 ± 0.056; in data set [1] (setting [4]), 0.614 ± 0.018; in data set [1] (setting [5]) it was 0.586 ± 0.015; in data set [1] (setting [6]) it was 0.634 ± 0.017; in data set [1] (setting [7]), 0.269 ± 0.0066; in data set [1] (setting [8]) it was 0.272 ± 0.014. In addition, the protein stability index amounted to 0.435 ± 0.012 in data set [1] (setting [9]) and 0.337 ± 0.05 in data set [2].
For GVLHSKGPWFSG, the protein stability index in data set [1] (setting [3]) came out at 0.703 ± 0.028; in data set [1] (setting [4]), 0.757 ± 0.0099; in data set [1] (setting [5]), 0.652 ± 0.0073; in data set [1] (setting [6]), 0.75 ± 0.0095; in data set [1] (setting [7]) it was 0.65 ± 0.014; in data set [1] (setting [8]), 0.665 ± 0.014. Further, the figures for the protein stability index in data set [1] (setting [9]) and in data set [2] were 0.72815 ± 0.0004 and 0.729 ± 0.017, respectively.
With GVLLLGSYQWVG, the protein stability index in data set [1] (setting [3]) was 0.306 ± 0.031; in data set [1] (setting [4]), 0.394 ± 0.021; in data set [1] (setting [5]), 0.368 ± 0.029; in data set [1] (setting [6]), 0.334 ± 0.0053; in data set [1] (setting [7]) it was 0.395 ± 0.008; in data set [1] (setting [8]), 0.373 ± 0.025. In addition, the protein stability index in data set [1] (setting [9]) turned out to be 0.317 ± 0.0059; in data set [2], 0.313 ± 0.007.
GVWLRAVRGFGV: the protein stability index in data set [1] (setting [3]) was found to be 0.706 ± 0.03; in data set [1] (setting [4]) it was 0.7586 ± 0.0013; in data set [1] (setting [5]) it was 0.646 ± 0.013; in data set [1] (setting [6]), 0.76107 ± 0.00069; in data set [1] (setting [7]) it was 0.652 ± 0.0083; in data set [1] (setting [8]) it was 0.6542 ± 0.0058. For the same sequence, the protein stability index in data set [1] (setting [9]) stood at 0.7403 ± 0.0064; in data set [2] it was 0.738 ± 0.04.
Regarding GWCLGFWCLLVC, the protein stability index in data set [1] (setting [3]) was determined as 0.0399 ± 0.0089; in data set [1] (setting [4]), 0.0444 ± 0.0049; in data set [1] (setting [5]) it was 0.123 ± 0.02; in data set [1] (setting [6]), 0.156 ± 0.019; in data set [1] (setting [7]) it was 0.0958 ± 0.005; in data set [1] (setting [8]) it was 0.0537 ± 0.018. Further, the protein stability index in data set [1] (setting [9]) was 0.068 ± 0.014; in data set [2], 0.118 ± 0.093.
Turning to GWVVWLTGCLVF, the protein stability index worked out at 0.512 ± 0.028 in data set [1] (setting [3]); 0.592 ± 0.014 in data set [1] (setting [4]); 0.446 ± 0.022 in data set [1] (setting [5]); 0.586 ± 0.042 in data set [1] (setting [6]); 0.407 ± 0.0086 in data set [1] (setting [7]); 0.443 ± 0.017 in data set [1] (setting [8]). Besides, the figures for the protein stability index in data set [1] (setting [9]) and in data set [2] were 0.621 ± 0.028 and 0.4592 ± 0.0025, respectively.
In the case of GYRGRITRLVNG, the protein stability index in data set [1] (setting [3]) was 0.661 ± 0.03; in data set [1] (setting [4]) it was 0.715 ± 0.015; in data set [1] (setting [5]), 0.639 ± 0.0079; in data set [1] (setting [6]), 0.7422 ± 0.00086; in data set [1] (setting [7]) it was 0.14 ± 0.024; in data set [1] (setting [8]) it was 0.168 ± 0.021. In addition, the protein stability index amounted to 0.369 ± 0.00097 in data set [1] (setting [9]) and 0.29 ± 0.035 in data set [2].
On to GYRYMWLWRLSA, for which the protein stability index in data set [1] (setting [3]) is 0.544 ± 0.027; in data set [1] (setting [4]) it was 0.706 ± 0.026; in data set [1] (setting [5]), 0.665 ± 0.036; in data set [1] (setting [6]), 0.762 ± 0.028; in data set [1] (setting [7]), 0.148 ± 0.0028; in data set [1] (setting [8]), 0.143 ± 0.032. In addition, the protein stability index was found to be 0.235 ± 0.013 in data set [1] (setting [9]) and 0.178 ± 0.095 in data set [2].
In the case of HCLGWCFSRLSS, the protein stability index in data set [1] (setting [3]) turned out to be 0.654 ± 0.043; in data set [1] (setting [4]), 0.7199 ± 0.00078; in data set [1] (setting [5]) it was 0.653 ± 0.021; in data set [1] (setting [6]) it was 0.766 ± 0.0092; in data set [1] (setting [7]), 0.186 ± 0.013; in data set [1] (setting [8]) it was 0.206 ± 0.027. In addition, the protein stability index is 0.4302 ± 0.0015 in data set [1] (setting [9]) and 0.289 ± 0.012 in data set [2].
For the sequence HIVYCSSEQIKC, the protein stability index in data set [1] (setting [3]) is 0.53 ± 0.048; in data set [1] (setting [4]), 0.6419 ± 0.0016; in data set [1] (setting [5]) it was 0.446 ± 0.026; in data set [1] (setting [6]) it was 0.589 ± 0.0063; in data set [1] (setting [7]) it was 0.482 ± 0.028; in data set [1] (setting [8]) it was 0.483 ± 0.029. The protein stability index worked out at 0.56 ± 0.032 in data set [1] (setting [9]) and 0.497 ± 0.0059 in data set [2].
